Data reported in PMC8809517, “Cofactor-independent RNA editing by a synthetic S-type PPR protein”.

T1: GFP-9S library array, motif 4 ND N98P;D124I (synthetic construct, N98P;D124I)
T1 chain: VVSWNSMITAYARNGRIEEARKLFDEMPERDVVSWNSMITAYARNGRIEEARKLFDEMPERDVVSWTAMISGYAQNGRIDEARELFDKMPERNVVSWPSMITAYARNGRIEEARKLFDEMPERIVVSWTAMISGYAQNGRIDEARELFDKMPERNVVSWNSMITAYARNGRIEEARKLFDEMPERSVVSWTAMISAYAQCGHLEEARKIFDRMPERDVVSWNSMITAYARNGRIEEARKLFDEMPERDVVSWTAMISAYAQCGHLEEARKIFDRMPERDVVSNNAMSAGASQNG

T2: GFP-9S library array, motif 4 ND N98W;D124Q (synthetic construct, N98W;D124Q)
T2 chain: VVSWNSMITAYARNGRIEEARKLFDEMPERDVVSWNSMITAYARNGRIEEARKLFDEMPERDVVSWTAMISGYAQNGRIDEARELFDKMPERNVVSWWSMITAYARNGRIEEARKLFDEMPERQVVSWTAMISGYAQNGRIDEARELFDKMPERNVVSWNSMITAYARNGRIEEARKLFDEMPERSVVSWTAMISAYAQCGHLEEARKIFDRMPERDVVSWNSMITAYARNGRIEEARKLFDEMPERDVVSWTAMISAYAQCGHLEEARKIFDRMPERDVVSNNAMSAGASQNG

T3: GFP-9S library array, motif 4 ND N98S;D124N (synthetic construct, N98S;D124N)
T3 chain: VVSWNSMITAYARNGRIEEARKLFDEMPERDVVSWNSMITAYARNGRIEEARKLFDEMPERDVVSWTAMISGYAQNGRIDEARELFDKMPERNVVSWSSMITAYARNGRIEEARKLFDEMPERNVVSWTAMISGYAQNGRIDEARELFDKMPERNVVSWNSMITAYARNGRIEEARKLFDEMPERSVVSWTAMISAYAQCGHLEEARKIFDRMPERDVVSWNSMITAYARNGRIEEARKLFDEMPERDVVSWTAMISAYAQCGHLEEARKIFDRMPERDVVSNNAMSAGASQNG

T4: GFP-9S library array, motif 4 ND N98T;D124P (synthetic construct, N98T;D124P)
T4 chain: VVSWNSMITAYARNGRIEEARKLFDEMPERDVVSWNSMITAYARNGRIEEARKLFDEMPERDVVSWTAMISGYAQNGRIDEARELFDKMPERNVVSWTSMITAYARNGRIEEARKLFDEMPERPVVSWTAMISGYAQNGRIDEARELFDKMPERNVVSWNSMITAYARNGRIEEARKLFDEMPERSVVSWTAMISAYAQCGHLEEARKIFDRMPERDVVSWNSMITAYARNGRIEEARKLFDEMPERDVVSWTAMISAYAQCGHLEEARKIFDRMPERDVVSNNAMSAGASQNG

T5: GFP-9S library array, motif 4 ND N98L;D124P (synthetic construct, N98L;D124P)
T5 chain: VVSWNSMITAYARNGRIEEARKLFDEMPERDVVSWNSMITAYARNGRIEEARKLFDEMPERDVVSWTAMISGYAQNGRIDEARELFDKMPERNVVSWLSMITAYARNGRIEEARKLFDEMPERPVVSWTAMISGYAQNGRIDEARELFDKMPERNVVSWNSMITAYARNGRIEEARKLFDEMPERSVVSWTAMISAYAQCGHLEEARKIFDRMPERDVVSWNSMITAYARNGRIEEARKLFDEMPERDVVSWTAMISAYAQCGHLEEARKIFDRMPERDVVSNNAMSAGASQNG


Columns and labels:
Experiment in all cases: high-throughput RNA pulldown from lysate on Ni-NTA beads; HRP: 50 mM Tris pH 8, 150 mM NaCl, 1 mM beta-mercaptoethanol, 50 ug/ml BSA, 3 ug/ml yeast RNA, 0.5% heparin; ITC and FP: Tris pH 8, 200 mM KCl, 5% glycerol; MST: 50 mM Tris pH 8, 200 mM NaCl, 1 mM DTT, BSA, heparin, 0.05% Tween 20
Conditions in all cases: tags: N-terminal His-eGFP
[1] = biological target: T1, GFP-9S library array, motif 4 ND …
[2] = biological target: T2, GFP-9S library array, motif 4 ND …
[3] = biological target: T3, GFP-9S library array, motif 4 ND …
[4] = biological target: T4, GFP-9S library array, motif 4 ND …
[5] = biological target: T5, GFP-9S library array, motif 4 ND …

Binder	Kd ([1]; label: 5' IRDye 800CW)	Kd ([2]; label: 5' IRDye 800CW)	Kd ([3]; label: 5' IRDye 800CW)	Kd ([4]; label: 5' IRDye 800CW)	Kd ([5]; label: 5' IRDye 800CW)	Kd ([1]; label: 5' Cy5)	Kd ([2]; label: 5' Cy5)	Kd ([3]; label: 5' Cy5)	Kd ([4]; label: 5' Cy5)	Kd ([5]; label: 5' Cy5)
AUUAAACGUGA (ssRNA) [IR-rpoA-A]	272 nM	224 nM	50.8 nM	107 nM	213 nM					
AUUACACGUGA (ssRNA) [Cy5-rpoA]						109 nM	101 nM	235 nM	92.4 nM	97.7 nM
AUUAGACGUGA (ssRNA) [Cy5-rpoA-G]						127 nM	94.4 nM	296 nM	90.3 nM	114 nM
AUUAUACGUGA (ssRNA) [IR-rpoA-U]	187 nM	195 nM	272 nM	113 nM	145 nM					
